Source: patent CN114395044A (HEFEN TIANKPORT IMMUNOLOGICAL DRUG CO LTD, dated 2022)

Tests used:
[1] = molecular target: T1, 人CD16a抗原 (ACRO biosystems, 货号CDA-H5220) (human, UniProt P08637 17-208); experiment: ELISA, human CD16a coated at 2 μg/mL, HRP rabbit anti-human IgG, OD450
T1 construct: Bought protein coated on the ELISA plate at 2 μg/mL; also called 人CD16a蛋白; CD16抗原

[2] = molecular target: T2, 人B7H6 (ACRO biosystems, 货号B76-H52H8) (human, UniProt Q68D85 25-262); experiment: ELISA, human B7H6 coated at 2 μg/mL, HRP rabbit anti-human IgG, OD450
T2 construct: Bought protein coated on the ELISA plate at 2 μg/mL; also called 人B7H6蛋白; B7H6抗原
T2 sequence (looked up): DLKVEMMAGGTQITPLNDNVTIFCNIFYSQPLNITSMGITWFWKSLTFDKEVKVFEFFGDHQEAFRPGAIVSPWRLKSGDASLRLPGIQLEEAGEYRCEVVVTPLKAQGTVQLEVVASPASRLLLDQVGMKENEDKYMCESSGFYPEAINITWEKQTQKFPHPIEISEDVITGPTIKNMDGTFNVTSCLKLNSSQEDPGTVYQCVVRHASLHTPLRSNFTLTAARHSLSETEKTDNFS

T1 sequence (P08637 17-208 limits assumed): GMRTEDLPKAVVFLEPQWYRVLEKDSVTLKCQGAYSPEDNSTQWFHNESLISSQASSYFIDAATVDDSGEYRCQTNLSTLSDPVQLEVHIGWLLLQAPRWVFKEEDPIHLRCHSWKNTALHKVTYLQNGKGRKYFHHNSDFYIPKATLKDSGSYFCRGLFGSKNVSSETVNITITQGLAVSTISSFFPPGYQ

B1: CD16×B7H6重组双特异性抗体 (bispecific antibody, human IgG1, L234A L235A)
chain 1: not shown
chain 2: DIVLTQTPLSLSVTPGQPASISCKASQSVDYDGDSYMNWYLQKPGQPPQLLIYAASTLHSGIPDRFSGSGSGTDFTLKISRVEAEDVGVYYCQQSKEDPRTFGQGTKLEIKGGGGSGGGGSGGGGSEVQLVQSGAEVKKPGASVKVSCKASGYTFTDYNMDWVRQAPGQGLEWIGDINPNNGGTLYNQKFRGRVTLTVDTSISTAYMELSRLRSDDTAVYYCARSEVFYGNYADYWGQGTTVTVSSEPKSCDKTHTCPPCPAPEAAGGPSVFLFPPKPKDTLMISRTPEVTCVVVDVSHEDPEVKFNWYVDGVEVHNAKTKPREEQYNSTYRVVSVLTVLHQDWLNGKEYKCKVSNKALPAPIEKTISKAKGQPREPQVCTLPPSRDELTKNQVSLSCAVKGFYPSDIAVEWESNGQPENNYKTTPPVLDSDGSFFLVSKLTVDKSRWQQGNVFSCSVMHEALHNHYTQKSLSLSPGK
notes: Heterodimer of two scFv-Fc chains (knob-into-hole); Expressed in ExpiCHO-S, purified on protein A; also called NKmab; CD16×B7H6双特异性抗体
B1: binds [1]; binds [2].
